Reference: FireProtDB (doi:10.1006/jmbi.2000.3776)

Conditions: Escherichia coli (strain K12); pH 7; 4 °C; GdnHCl; CD; PBS; whole UniProt chain shown

B1: Major outer membrane lipoprotein Lpp wild type, P69776 (protein)
chain: MKATKLVLGAVILGSTLLAGCSSNAKIDQLSSDVQTLNAKVDQLSNDVNAMRSDVQAAKDDAARANQRLDNMATKYRK
Q: For B1, which unfolding free energy is on record?
A: 18.8 kcal/mol
